Experimental data: publication PMC6873191

Assays:
[1] = target: full-length ClpC fused to the T25 fragment of B. pertussis adenylate cyclase (UniProt P37571); experiment: bacterial two-hybrid interaction assay (β-gal readout); details: E. coli Δcya strain DHM1, Gp53 fused to T18, ClpC fused to T25, n = 3; for response: parent: est. 21000, read off a plot; for percent of parent: parent: 100
[2] = target: full-length ClpC fused to the T25 fragment of B. pertussis adenylate cyclase (B. subtilis) (UniProt P37571); experiment: two-hybrid; modified bacterial two-hybrid: MecA-T18 and ClpC-T25 in E. coli DHM1 that holds a plasmid with Gp53 under the L-arabinose-inducible araB promoter; β-gal activity with and without L-arabinose
[3] = target: C-terminal FLAG-tagged ClpC (B. subtilis) (UniProt P37571)

Row | Substance | response [1] [Miller Units] | percent of parent [1] [%] | also measured
1 | Gp53 (WT) fused to a fragment of B. pertussis adenylate cyclase for the bacterial two-hybrid assay R94A | 21000 | – | –
2 | Gp53 (WT) fused to a fragment of B. pertussis adenylate cyclase for the bacterial two-hybrid assay R94E | 7700 | 37 | –
3 | Gp53 (WT) fused to a fragment of B. pertussis adenylate cyclase for the bacterial two-hybrid assay K101A | 22000 | – | –
4 | Gp53 (WT) fused to a fragment of B. pertussis adenylate cyclase for the bacterial two-hybrid assay K101E | 23000 | – | –
5 | Gp53 expressed from pSCBAD-Gp53 under the L-arabinose-inducible araB promoter (natural protein) | – | – | fold reduction of the β-gal activity of MecA-ClpC on induction of Gp53 [2]: 3 fold
6 | Gp53 (WT) fused to a fragment of B. pertussis adenylate cyclase for the bacterial two-hybrid assay L83A | 20000 | – | –
7 | Gp53 (WT) fused to a fragment of B. pertussis adenylate cyclase for the bacterial two-hybrid assay L95A | 10000 | 48 | –
8 | N-terminal His6-tagged Gp53 of phage SPO1 (natural protein) | – | – | β-casein (3 μM) left intact after 90 min of in vitro degradation by ClpCP with MecA, with Gp53 against without Gp53 [3]: 10 fold
9 | Gp53 (WT) fused to a fragment of B. pertussis adenylate cyclase for the bacterial two-hybrid assay V87A | 9300 | 44 | –
